US20100120068A1 (PHARMACOME, published 2010)

Molecular target: T1, human α1A-adrenergic receptor (human, UniProt P35348 1-466)
T1 construct: Expressed in CHO-K1 cells either alone (α1A cells) or together with CRELD1α (α1L cells); also called ADRA1A; α1A-subtype
T1 sequence: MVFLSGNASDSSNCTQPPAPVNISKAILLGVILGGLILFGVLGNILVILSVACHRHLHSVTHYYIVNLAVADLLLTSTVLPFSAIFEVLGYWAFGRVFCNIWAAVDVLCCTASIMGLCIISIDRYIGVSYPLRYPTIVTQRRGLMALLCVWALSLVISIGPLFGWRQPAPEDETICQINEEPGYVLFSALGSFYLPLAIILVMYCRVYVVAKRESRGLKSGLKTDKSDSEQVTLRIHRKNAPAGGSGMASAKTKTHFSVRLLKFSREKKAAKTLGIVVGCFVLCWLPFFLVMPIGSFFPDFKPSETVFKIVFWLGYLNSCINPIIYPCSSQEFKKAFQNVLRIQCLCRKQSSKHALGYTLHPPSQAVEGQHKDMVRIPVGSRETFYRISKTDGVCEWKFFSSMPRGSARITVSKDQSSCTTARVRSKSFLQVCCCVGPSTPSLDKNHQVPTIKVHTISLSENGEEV
Test: method not described; told in the description only

B1: CRELD (cysteine-rich with EGF-like domains) 1α protein (other)
chain: QPSPPPQSSPPPQPHPCHTCRGLVDSFNKGLERTIRDNFGGGNTAWEEENLSKYKDSETRLVEVLEGVCSKSDFECHRLLELSEELVESWWFHKQQEAPDLFQWLCSDSLKLCCPAGTFGPSCLPCPGGTERPCGGYGQCEGEGTRGGSGHCDCQAGYGGEACGQCGLGYFEAERNASHLVCSACFGPCARCSGPEESNCLQCKKGWALHHLKCVDIDECGTEGANCGADQFCVNTEGSYECRDCAKACLGCMGAGPGRCKKCSPGYQQVGSKCLDVDECETEVCPGENKQCENTEGGYRCICAEGYKQMEGICVKEQIPESAGFFSEMTEDELVVLQQMFFGIIICALATLAAKGDLVFTAIFIGAVAAMTGYWLSERSDRVLEGFIKGR
notes: The whole coding region was used; No signal peptide limits are stated; also called CRELD1α; CREDL1α
B1: binds.
